Measurements reported in US20050070689A1 (Genentech, published 2005).

Experiments:
[1] = biological target: T1, human TACI (265 amino acid form) expressed on transfected COS 7 cells (human, UniProt O14836 1-258); assay: AP-ligand conditioned medium on transfected COS 7 cells, in situ AP staining
T1 construct: also called hTACI (265)
T1 sequence: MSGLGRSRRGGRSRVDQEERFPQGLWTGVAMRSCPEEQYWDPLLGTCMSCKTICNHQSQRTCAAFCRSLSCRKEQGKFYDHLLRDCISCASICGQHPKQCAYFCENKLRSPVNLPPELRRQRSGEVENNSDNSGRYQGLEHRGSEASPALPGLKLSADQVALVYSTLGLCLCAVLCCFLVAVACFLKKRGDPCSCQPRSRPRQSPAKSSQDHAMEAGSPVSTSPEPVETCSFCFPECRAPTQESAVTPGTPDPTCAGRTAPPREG

[2] = biological target: T2, murine BR3 expressed on transfected COS 7 cells (murine, UniProt Q9D8D0 1-175); assay: as above
T2 construct: also called mBR3
T2 sequence: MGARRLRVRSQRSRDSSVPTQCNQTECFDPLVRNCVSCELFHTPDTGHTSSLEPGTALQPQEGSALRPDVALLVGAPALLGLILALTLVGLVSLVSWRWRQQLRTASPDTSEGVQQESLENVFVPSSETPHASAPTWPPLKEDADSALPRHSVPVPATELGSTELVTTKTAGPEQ

[3] = biological target: T3, TACIs expressed on transfected COS 7 cells (human, UniProt O14836 1-292); assay: AP-APRIL staining of transfected cells, in situ AP activity
T3 sequence: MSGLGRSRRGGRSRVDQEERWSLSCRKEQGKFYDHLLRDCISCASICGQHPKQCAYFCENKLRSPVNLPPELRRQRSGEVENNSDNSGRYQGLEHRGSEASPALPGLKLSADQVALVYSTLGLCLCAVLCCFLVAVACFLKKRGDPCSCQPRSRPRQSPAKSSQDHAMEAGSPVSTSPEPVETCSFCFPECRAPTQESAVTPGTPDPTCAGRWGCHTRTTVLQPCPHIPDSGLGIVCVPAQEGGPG

[4] = biological target: T4, human BR3 expressed on transfected COS 7 cells (human, UniProt Q96RJ3 1-184); assay: figure legend: AP-ligand conditioned medium on transfected COS 7 cells, in situ AP staining
T4 construct: also called hBR3
T4 sequence: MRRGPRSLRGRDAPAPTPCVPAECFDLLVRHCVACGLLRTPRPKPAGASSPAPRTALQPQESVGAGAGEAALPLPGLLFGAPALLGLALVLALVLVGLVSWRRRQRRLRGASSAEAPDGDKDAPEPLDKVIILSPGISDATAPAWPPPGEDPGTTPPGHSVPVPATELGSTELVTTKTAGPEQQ
Method: (a) COS 7 transfected with hBR3 (1,2) or TACI (3,4) were incubated with conditioned medium containing AP-TALL-1 (1,3) or AP-April (2,4). Cells were washed, fixed, and stained for the AP activity in situ. (b) COS7 cells transfected with TALL-1 (1,2) or April (3,4) were incubated with hBR3-hFc (1,3) or TACI-hFc (2,4). Cells were washed, fixed, and bound receptor-hFc protein was detected using a biotinylated goat anti-human antibody followed by Cy3-streptavidin. (c) BR3-hFc (1,2) or TACI-hFc (3,4) was incubated with Flag-TALL-1 (1,3) or Flag-April (2,4). The receptor-Fc fusion proteins precipitated with protein-A-agarose were subjected to immunoblotting with anti-Flag antibody. Equivalent amounts of ligand (middle panel) or receptor-hFc (bottom) were used in the binding experiment. (d) 293E cells (Invitrogen) were transfected with 0.25 ug of a NF-kB luciferase reporter gene construct, 25 ng pRL-TK, and indicated amounts of expression constructs encoding hBR3, mBR3, TACI and BCMA. NF-kB activation was determined 20-24 hours later using the Dual-Luciferase reporter assay kit (Promega).

[5] = biological target: T5, AP-TALL-1 (human, UniProt Q9Y275 136-285); assay: AP-TALL-1 binding to transfected cells
T5 construct: Used as conditioned medium of transfected 293 cells; AP is at the N-terminus of TALL-1; Flag precedes AP (as described for AP-APRIL); not shown: human placental alkaline phosphatase (AP), amplified from pAPtag-5
T5 sequence (Q9Y275 136-285): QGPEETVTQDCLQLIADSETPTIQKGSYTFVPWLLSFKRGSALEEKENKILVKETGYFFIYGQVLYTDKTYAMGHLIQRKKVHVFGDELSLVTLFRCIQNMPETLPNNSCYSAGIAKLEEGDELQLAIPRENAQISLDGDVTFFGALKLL

[6] = biological target: T6, APRIL (full length cDNA clone without Flag tag) expressed on transfected COS 7 cells (human, UniProt O75888 105-250); assay: receptor-Fc staining of transfected COS 7 cells, biotinylated anti-human antibody and Cy3-streptavidin
T6 construct: also called APRIL-transfected COS 7 cells
T6 sequence: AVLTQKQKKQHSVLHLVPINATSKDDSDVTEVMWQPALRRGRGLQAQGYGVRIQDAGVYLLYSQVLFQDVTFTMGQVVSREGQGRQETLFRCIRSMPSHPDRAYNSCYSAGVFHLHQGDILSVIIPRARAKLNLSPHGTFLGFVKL
Method: Transfected COS 7 cells were subsequently incubated with TACI.ECD.hFC immunoadhesin, hBr3-hFc, or mBR3-hFc (prepared as described above). Cells were incubated with the TACI ECD-IgG (or a TNFR1-IgG construct prepared as described in Ashkenazi et al., Proc. Natl. Acad. Sci., 88:10535-10539 (1991)) at 1 μg/ml for 1 hour in PBS. Cells were subsequently washed three times with PBS and fixed with 4% paraformaldehyde in PBS. Cell staining was visualized by incubation with biotinylated goat anti-human antibody (Jackson Labs, at 1:200 dilution) followed by Cy3-streptavidin (Jackson Labs, at 1:200 dilution). Murine BR3-Fc, like hBR3-hFc, also only bound TALL-1-transfected but not APRIL-transfected COS 7 cells (data not shown). […] In contrast, TACI-hFc fusion protein bound cells transfected with either TALL-1 or APRIL (FIG. 10).

B1: AP-APRIL (ligand)
chain: T6 sequence
notes: APRIL fused C-terminally to AP, AP fused C-terminally to Flag; not shown: human placental alkaline phosphatase (AP)
- binding result [1]: binds
- binding result [2]: no binding
- binding result [3]: binds
- binding result [4]: no binding

B2: BCMA expressed on transfected cells (receptor)
chain: MLQMAGQCSQNEYFDSLLHACIPCQLRCSSNTPPLTCQRYCNASVTNSVKGTNAILWTCLGLSLIISLAVFVLMFLLRKISSEPLKDEFKNTGSGLLGMANIDLEKSRTGDEIILPRGLEYTVEECTCEDCIKSKPKVDSDHCFPLPAMEEGATILVTTKTNDYCKSLPAALSATEIEKSISAR
notes: The expression construct is only called 'BCMA'; also called BCMA-transfected cells
- binding result [5]: binds

B3: Murine BR3-Fc (Fc fusion)
chain: MGARRLRVRSQRSRDSSVPTQCNQTECFDPLVRNCVSCELFHTPDTGHTSSLEPGTALQPQEGSALRPDVA
notes: Only 'prepared as described above' is said; also called mBR3-hFc; not shown: human IgG1 Fc region
- binding result [6]: no binding
